Experimental data from the nanobody polyreactivity screen of Harvey et al. (2022).

experiment: yeast display, Sf9 membrane polyspecificity reagent, FACS + sequencing; frameworks hold sequencing errors
Outline: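 Synthetic nanobody libraries on Saccharomyces cerevisiae BJ5465 were galactose-induced for 36–48 hours, stained 1 hour at 4 °C with 10% biotinylated, detergent-solubilized Sf9 membrane reagent and enriched on streptavidin microbeads. FACS then separated cells into low and high (top ~1%) gates by anti-HA (expression) and streptavidin (reagent binding) fluorescence. Genes were colony-PCR amplified, MiSeq 2 × 250 sequenced and CDR-length filtered. A clone's polyreactivity label is that of its gate of origin.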

Row | Sequence | polyreactivity (PSR sort gate)
1 | QVQLVESGGGLVQAGGSLRLTCAASGRIFYNYAMGWYRQAPGKERELLAAISGSGGSTYYADSVKGRFTISRDNAKNSVYLQMNSLKPEDTAVYYCSTSCPQYYSRNFDYWGQGTQVTVSS | low polyreactivity
2 | QVQLVESGGGLVQAGGSLRLTCAASGRILVLNAMGWYRQAPGKERELVADITSGGSTYFADSVKGRFTISRDNAKNTVYLQMNSLKPEDTAVYYCAADWNTYPDYQQSYFVSYEYNYWGQGTQVTVSS | low polyreactivity
3 | QVQLVESGGGLVQAGGSLRLTCAASGRILYSYAMGWYRQEPGKERELVAAISGSGGSTYYADSVKGRFTISRDNSKNTVYLQMNMLKPEDTAVYYCAARDLYRYRPQGLGSSQRYYYWGQGTQVTVSS | high polyreactivity
4 | QVQLVESGGGLVQAGGSLRLTCAASGRISGYNMGWYRQAPGKERELVAGIDYSGGSTYYADSVKGRFTISRDNAKYNVSLQMTSLKPEDTAVYDCNAVYARKYYYSHGYDYWGQGTQVTVSS | high polyreactivity
5 | QVQLVESGGGLVQAGGSLRLTCAASGRISRYYAMGWYRQAPGKERELVATITFSGGSTYYADSVKGRFTISRDNAKNTVYLQMNSLKPEDTAVYYCAKQRGGAYLVPWYGYWGQGTQVTVSS | high polyreactivity
6 | QVQLVESGGGLVQAGGSLRLTCAASGRNFSQNAMGWYRQAPGKERELVAAISVTGGRTYYADSVKGRFTISRDNAKNTVYLQMNSLKPEDTAVYYCAKRTRSPGYYYWGQGTQVTVSS | high polyreactivity
7 | QVQLVESGGGLVQAGGSLRLTCAASGRTFDYNAMGWYIQAPGKERELVAAISQSGGRTYYADSVKGRFTISRDHAKNTVYLQMNSLKPEDTAVYYCAAEAYGNRDYWGQGTQVTVSS | low polyreactivity
8 | QVQLVESGGGLVQAGGSLRLTCAASGRTFGDNAMGWYRQAPWKERELVAAITSGASTYYADAVKGRFTISRDNAMNTVYLQMNSLKPEDTAVYYCADDQGDWNGYGFDYWGQGTQVTVSS | low polyreactivity
9 | QVQLVESGGGLVQAGGSLRLTCAASGRTFGYYTMGWYRQAPGKERELVATISSDGTTNYADSVKGRFTISRDNAKNTVYLQMNSLKPEDTAVYYCNADFRLQYYYRIYDYWGQGTQVTVSS | low polyreactivity
10 | QVQLVESGGGLVQAGGSLRLTCAASGRTFKFNAMGWDRQAPGKERELVAGITWTGSTTSYADSVKGRFTISRDNAKNTVYLQMNSLKPEDTSVYYCAADKIRFWYHGFYYRGQGTQVTVSS | low polyreactivity
11 | QVQLVESGGGLVQAGGSLRLTCAASGRTFNIYAMGWYRQAPGKERELVAAITSGGSTNYADSVKGRFTISRDNAKNTVYLQMNSLKPEDTAVYYCNARYFRGYDYWGQGTQVTVSS | high polyreactivity
12 | QVQLVESGGGLVQAGGSLRLTCAASGRTFPSYTMGWYRQAPGKERELVAAITWSGGSTYADSVKGRFSISRDNAKNTVYLQMKSLKPEDSAVYYCNAPIIAYDDGGSLVRYGRGDYWGQGTQVTVSS | low polyreactivity
13 | QVQLVESGGGLVQAGGSLRLTCAASGRTFRGYVKAWSRQAPGKERELVAAISWSGGSTYYADSVKGRFTISRDNAKNSVYLQMKSLKPEDTAVYYCAARRYSYVGGQGSDYWGQGTLVTVSS | high polyreactivity
14 | QVQLVESGGGLVQAGGSLRLTCAASGRTFRVYAMGWYRQAPGKERELVATITSSGGSTYYADSVKGRFTISRDNAKKTVYLQMNSLKREDTAVYYCNVSVYYNYDSSYDYWGQGTQVTVSS | low polyreactivity
15 | QVQLVESGGGLVQAGGSLRLTCAASGRTFSKYAMGWYRQATGKERELVAAITSGGGTYYADSVKGRFTISRDNAKNTVYLQMNSLNPEDTAVYYCAVSVTTVSTYDYWGQGTQVTVSS | low polyreactivity
16 | QVQLVESGGGLVQAGGSLRLTCAASGRTFTLNAMGWYRQAPGKERELVADIRRRGGSTYYADSVKGRFTISRDNAKNTVYVQMNSRKAADTAVYYCATHGRWYKLPTGWRPYDYWGLGTQVTVSS | high polyreactivity
17 | QVQLVESGGGLVQAGGSLRLTCAASGRTFVTNAMGWYRQAPGKERELVAAISWSGGDTYYADSVKGRFTISRDNAKYTVYLEMNSLKPEDTAVYYCAAYFWGVYFFGMDYWGQGTLVTVSS | low polyreactivity
